# Columns and labels:
# I46A [1] = test: flow cytometry on CHO-K1 transfectants, left sub-column
# H36A [2] = test: as above
# E9A [3] = test: as above
# K17A [4] = test: as above
# S63A [5] = test: as above
# D32A [6] = test: as above
# W13A [7] = test: as above
# G16A [8] = test: as above
# R93A [9] = test: as above
# P44A [10] = test: as above
# P8A [11] = test: as above
# Q91A [12] = test: as above
# V49A [13] = test: as above
# K31A [14] = test: as above
# R87A [15] = test: as above
# Q41A [16] = test: as above
# W90A [17] = test: as above
# D43A [18] = test: as above
# H60A [19] = test: as above
# G89A [20] = test: as above
# N88A [21] = test: as above
# Q15A [22] = test: as above
# R10A [23] = test: as above
# V30A [24] = test: as above
# F28A [25] = test: as above
# I46A [26] = test: flow cytometry on CHO-K1 transfectants, right sub-column
# H36A [27] = test: as above
# E9A [28] = test: as above
# K17A [29] = test: as above
# S63A [30] = test: as above
# D32A [31] = test: as above
# W13A [32] = test: as above
# G16A [33] = test: as above
# R93A [34] = test: as above
# P44A [35] = test: as above
# P8A [36] = test: as above
# Q91A [37] = test: as above
# V49A [38] = test: as above
# K31A [39] = test: as above
# R87A [40] = test: as above
# Q41A [41] = test: as above
# W90A [42] = test: as above
# D43A [43] = test: as above
# H60A [44] = test: as above
# G89A [45] = test: as above
# N88A [46] = test: as above
# Q15A [47] = test: as above
# R10A [48] = test: as above
# V30A [49] = test: as above
# F28A [50] = test: as above
# R37A [51] = test: flow cytometry on CHO-K1 transfectants, left sub-column, cell hatched (loss of binding)
# K38A [52] = test: as above
# R37A [53] = test: flow cytometry on CHO-K1 transfectants, right sub-column, cell hatched (loss of binding)
# K38A [54] = test: as above
# R37A [55] = test: flow cytometry on CHO-K1 transfectants, left sub-column
# K38A [56] = test: as above
# R37A [57] = test: flow cytometry on CHO-K1 transfectants, right sub-column
# K38A [58] = test: as above
# K17A [59] = test: flow cytometry on CHO-K1 transfectants, left sub-column, cell hatched (loss of binding)
# D32A [60] = test: as above
# Q15A [61] = test: as above
# K17A [62] = test: flow cytometry on CHO-K1 transfectants, right sub-column, cell hatched (loss of binding)
# D32A [63] = test: as above
# Q15A [64] = test: as above
# Chain of Q91A (receptor chain, as listed by the source Q91A Q91A limits assumed): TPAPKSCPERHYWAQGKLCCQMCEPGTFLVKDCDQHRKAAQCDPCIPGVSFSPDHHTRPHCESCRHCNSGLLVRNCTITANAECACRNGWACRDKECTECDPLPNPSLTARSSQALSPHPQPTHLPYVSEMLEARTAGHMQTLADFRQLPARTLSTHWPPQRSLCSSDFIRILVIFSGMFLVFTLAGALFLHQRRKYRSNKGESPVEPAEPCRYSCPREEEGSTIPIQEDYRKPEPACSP
# Chain of V30A (receptor chain, as listed by the source V30A V30A limits assumed): as the sequence (receptor chain, as listed by the source Q91A Q91A limits assumed) above, with V30A, A91Q counted along it
# Chain of F28A (receptor chain, as listed by the source F28A F28A limits assumed): as the sequence (receptor chain, as listed by the source Q91A Q91A limits assumed) above, with F28A, A91Q counted along it
# Chain of W13A (receptor chain, as listed by the source W13A W13A limits assumed): as the sequence (receptor chain, as listed by the source Q91A Q91A limits assumed) above, with W13A, A91Q counted along it
# Chain of K17A (receptor chain, as listed by the source K17A K17A limits assumed): as the sequence (receptor chain, as listed by the source Q91A Q91A limits assumed) above, with K17A, A91Q counted along it
# Chain of N88A (receptor chain, as listed by the source N88A N88A limits assumed): as the sequence (receptor chain, as listed by the source Q91A Q91A limits assumed) above, with N88A, A91Q counted along it
# Chain of D43A (receptor chain, as listed by the source D43A D43A limits assumed): as the sequence (receptor chain, as listed by the source Q91A Q91A limits assumed) above, with D43A, A91Q counted along it
# Chain of P8A (receptor chain, as listed by the source limits assumed): as the sequence (receptor chain, as listed by the source Q91A Q91A limits assumed) above, with P8A, A91Q counted along it
# Chain of E9A (receptor chain, as listed by the source limits assumed): as the sequence (receptor chain, as listed by the source Q91A Q91A limits assumed) above, with E9A, A91Q counted along it
# Chain of H36A (receptor chain, as listed by the source H36A H36A limits assumed): as the sequence (receptor chain, as listed by the source Q91A Q91A limits assumed) above, with H36A, A91Q counted along it
# Chain of K31A (receptor chain, as listed by the source K31A K31A limits assumed): as the sequence (receptor chain, as listed by the source Q91A Q91A limits assumed) above, with K31A, A91Q counted along it
# Chain of R37A (receptor chain, as listed by the source R37A R37A limits assumed): as the sequence (receptor chain, as listed by the source Q91A Q91A limits assumed) above, with R37A, A91Q counted along it
# Chain of W90A (receptor chain, as listed by the source W90A W90A limits assumed): as the sequence (receptor chain, as listed by the source Q91A Q91A limits assumed) above, with W90A, A91Q counted along it
# Chain of Q15A (receptor chain, as listed by the source Q15A Q15A limits assumed): as the sequence (receptor chain, as listed by the source Q91A Q91A limits assumed) above, with Q15A, A91Q counted along it
# Chain of Q41A (receptor chain, as listed by the source Q41A Q41A limits assumed): as the sequence (receptor chain, as listed by the source Q91A Q91A limits assumed) above, with Q41A, A91Q counted along it
# Chain of K38A (receptor chain, as listed by the source K38A K38A limits assumed): as the sequence (receptor chain, as listed by the source Q91A Q91A limits assumed) above, with K38A, A91Q counted along it
# Chain of R93A (receptor chain, as listed by the source R93A R93A limits assumed): as the sequence (receptor chain, as listed by the source Q91A Q91A limits assumed) above, with A91Q, R93A counted along it
# Chain of V49A (receptor chain, as listed by the source V49A V49A limits assumed): as the sequence (receptor chain, as listed by the source Q91A Q91A limits assumed) above, with V49A, A91Q counted along it
# Chain of P44A (receptor chain, as listed by the source P44A P44A limits assumed): as the sequence (receptor chain, as listed by the source Q91A Q91A limits assumed) above, with P44A, A91Q counted along it
# Chain of H60A (receptor chain, as listed by the source H60A H60A limits assumed): as the sequence (receptor chain, as listed by the source Q91A Q91A limits assumed) above, with H60A, A91Q counted along it
# Chain of S63A (receptor chain, as listed by the source S63A S63A limits assumed): as the sequence (receptor chain, as listed by the source Q91A Q91A limits assumed) above, with S63A, A91Q counted along it
# Chain of I46A (receptor chain, as listed by the source I46A I46A limits assumed): as the sequence (receptor chain, as listed by the source Q91A Q91A limits assumed) above, with I46A, A91Q counted along it
# Chain of G16A (receptor chain, as listed by the source G16A G16A limits assumed): as the sequence (receptor chain, as listed by the source Q91A Q91A limits assumed) above, with G16A, A91Q counted along it
# Chain of D32A (receptor chain, as listed by the source D32A D32A limits assumed): as the sequence (receptor chain, as listed by the source Q91A Q91A limits assumed) above, with D32A, A91Q counted along it
# Chain of R10A (receptor chain, as listed by the source R10A R10A limits assumed): as the sequence (receptor chain, as listed by the source Q91A Q91A limits assumed) above, with R10A, A91Q counted along it
# Chain of G89A (receptor chain, as listed by the source G89A G89A limits assumed): as the sequence (receptor chain, as listed by the source Q91A Q91A limits assumed) above, with G89A, A91Q counted along it
# Chain of R87A (receptor chain, as listed by the source R87A R87A limits assumed): as the sequence (receptor chain, as listed by the source Q91A Q91A limits assumed) above, with R87A, A91Q counted along it
substance,measurement,setting,value
9F4 (mouse IgG2a) (antibody),"binding, WT hCD27 = 100 (GM FITC)",I46A [1],137%
same,"binding, WT hCD27 = 100 (GM FITC)",H36A [2],88.5%
same,"binding, WT hCD27 = 100 (GM FITC)",E9A [3],96.6%
same,"binding, WT hCD27 = 100 (GM FITC)",K17A [4],98%
same,"binding, WT hCD27 = 100 (GM FITC)",S63A [5],153%
same,"binding, WT hCD27 = 100 (GM FITC)",D32A [6],118%
same,"binding, WT hCD27 = 100 (GM FITC)",W13A [7],90.7%
same,"binding, WT hCD27 = 100 (GM FITC)",G16A [8],94.7%
same,"binding, WT hCD27 = 100 (GM FITC)",R93A [9],122%
same,"binding, WT hCD27 = 100 (GM FITC)",P44A [10],159%
same,"binding, WT hCD27 = 100 (GM FITC)",P8A [11],68.5%
same,"binding, WT hCD27 = 100 (GM FITC)",Q91A [12],149%
same,"binding, WT hCD27 = 100 (GM FITC)",V49A [13],151%
same,"binding, WT hCD27 = 100 (GM FITC)",K31A [14],207%
same,"binding, WT hCD27 = 100 (GM FITC)",R87A [15],153%
same,"binding, WT hCD27 = 100 (GM FITC)",Q41A [16],113%
same,"binding, WT hCD27 = 100 (GM FITC)",W90A [17],130%
same,"binding, WT hCD27 = 100 (GM FITC)",D43A [18],201%
same,"binding, WT hCD27 = 100 (GM FITC)",H60A [19],185%
same,"binding, WT hCD27 = 100 (GM FITC)",G89A [20],116%
same,"binding, WT hCD27 = 100 (GM FITC)",N88A [21],153%
same,"binding, WT hCD27 = 100 (GM FITC)",Q15A [22],107%
same,"binding, WT hCD27 = 100 (GM FITC)",R10A [23],104%
same,"binding, WT hCD27 = 100 (GM FITC)",V30A [24],166%
same,"binding, WT hCD27 = 100 (GM FITC)",F28A [25],115%
same,"binding, WT hCD27 = 100 (GM FITC)",I46A [26],82.7%
same,"binding, WT hCD27 = 100 (GM FITC)",H36A [27],66.5%
same,"binding, WT hCD27 = 100 (GM FITC)",E9A [28],109%
same,"binding, WT hCD27 = 100 (GM FITC)",K17A [29],106%
same,"binding, WT hCD27 = 100 (GM FITC)",S63A [30],149%
same,"binding, WT hCD27 = 100 (GM FITC)",D32A [31],66.3%
same,"binding, WT hCD27 = 100 (GM FITC)",W13A [32],86.5%
same,"binding, WT hCD27 = 100 (GM FITC)",G16A [33],102%
same,"binding, WT hCD27 = 100 (GM FITC)",R93A [34],91.1%
same,"binding, WT hCD27 = 100 (GM FITC)",P44A [35],91.7%
same,"binding, WT hCD27 = 100 (GM FITC)",P8A [36],62.2%
same,"binding, WT hCD27 = 100 (GM FITC)",Q91A [37],111%
same,"binding, WT hCD27 = 100 (GM FITC)",V49A [38],92.1%
same,"binding, WT hCD27 = 100 (GM FITC)",K31A [39],133%
same,"binding, WT hCD27 = 100 (GM FITC)",R87A [40],98.8%
same,"binding, WT hCD27 = 100 (GM FITC)",Q41A [41],71.3%
same,"binding, WT hCD27 = 100 (GM FITC)",W90A [42],85.7%
same,"binding, WT hCD27 = 100 (GM FITC)",D43A [43],92.5%
same,"binding, WT hCD27 = 100 (GM FITC)",H60A [44],126%
same,"binding, WT hCD27 = 100 (GM FITC)",G89A [45],77.5%
same,"binding, WT hCD27 = 100 (GM FITC)",N88A [46],104%
same,"binding, WT hCD27 = 100 (GM FITC)",Q15A [47],118%
same,"binding, WT hCD27 = 100 (GM FITC)",R10A [48],99%
same,"binding, WT hCD27 = 100 (GM FITC)",V30A [49],95.6%
same,"binding, WT hCD27 = 100 (GM FITC)",F28A [50],58.2%
same,"binding, WT hCD27 = 100 (GM FITC)",R37A [51],35%
same,"binding, WT hCD27 = 100 (GM FITC)",K38A [52],44.7%
same,"binding, WT hCD27 = 100 (GM FITC)",R37A [53],6.2%
same,"binding, WT hCD27 = 100 (GM FITC)",K38A [54],31.6%
1A4 (mouse IgG1) (antibody),"binding, WT hCD27 = 100 (GM FITC)",I46A [1],129%
same,"binding, WT hCD27 = 100 (GM FITC)",H36A [2],111%
same,"binding, WT hCD27 = 100 (GM FITC)",R37A [55],115%
same,"binding, WT hCD27 = 100 (GM FITC)",E9A [3],98.2%
same,"binding, WT hCD27 = 100 (GM FITC)",S63A [5],158%
same,"binding, WT hCD27 = 100 (GM FITC)",K38A [56],104%
same,"binding, WT hCD27 = 100 (GM FITC)",W13A [7],89.1%
same,"binding, WT hCD27 = 100 (GM FITC)",G16A [8],90.8%
same,"binding, WT hCD27 = 100 (GM FITC)",R93A [9],120%
same,"binding, WT hCD27 = 100 (GM FITC)",P44A [10],146%
same,"binding, WT hCD27 = 100 (GM FITC)",P8A [11],84.5%
same,"binding, WT hCD27 = 100 (GM FITC)",Q91A [12],146%
same,"binding, WT hCD27 = 100 (GM FITC)",V49A [13],144%
same,"binding, WT hCD27 = 100 (GM FITC)",K31A [14],194%
same,"binding, WT hCD27 = 100 (GM FITC)",R87A [15],143%
same,"binding, WT hCD27 = 100 (GM FITC)",Q41A [16],106%
same,"binding, WT hCD27 = 100 (GM FITC)",W90A [17],123%
same,"binding, WT hCD27 = 100 (GM FITC)",D43A [18],195%
same,"binding, WT hCD27 = 100 (GM FITC)",H60A [19],167%
same,"binding, WT hCD27 = 100 (GM FITC)",G89A [20],100%
same,"binding, WT hCD27 = 100 (GM FITC)",N88A [21],154%
same,"binding, WT hCD27 = 100 (GM FITC)",R10A [23],107%
same,"binding, WT hCD27 = 100 (GM FITC)",V30A [24],161%
same,"binding, WT hCD27 = 100 (GM FITC)",F28A [25],113%
same,"binding, WT hCD27 = 100 (GM FITC)",I46A [26],82.7%
same,"binding, WT hCD27 = 100 (GM FITC)",H36A [27],85.2%
same,"binding, WT hCD27 = 100 (GM FITC)",R37A [57],87%
same,"binding, WT hCD27 = 100 (GM FITC)",E9A [28],122%
same,"binding, WT hCD27 = 100 (GM FITC)",S63A [30],163%
same,"binding, WT hCD27 = 100 (GM FITC)",K38A [58],97.7%
same,"binding, WT hCD27 = 100 (GM FITC)",W13A [32],93.4%
same,"binding, WT hCD27 = 100 (GM FITC)",G16A [33],97.3%
same,"binding, WT hCD27 = 100 (GM FITC)",R93A [34],91.1%
same,"binding, WT hCD27 = 100 (GM FITC)",P44A [35],90.5%
same,"binding, WT hCD27 = 100 (GM FITC)",P8A [36],79.1%
same,"binding, WT hCD27 = 100 (GM FITC)",Q91A [37],120%
same,"binding, WT hCD27 = 100 (GM FITC)",V49A [38],97%
same,"binding, WT hCD27 = 100 (GM FITC)",K31A [39],138%
same,"binding, WT hCD27 = 100 (GM FITC)",R87A [40],108%
same,"binding, WT hCD27 = 100 (GM FITC)",Q41A [41],76.1%
same,"binding, WT hCD27 = 100 (GM FITC)",W90A [42],96.4%
same,"binding, WT hCD27 = 100 (GM FITC)",D43A [43],93.4%
same,"binding, WT hCD27 = 100 (GM FITC)",H60A [44],120%
same,"binding, WT hCD27 = 100 (GM FITC)",G89A [45],81.8%
same,"binding, WT hCD27 = 100 (GM FITC)",N88A [46],116%
same,"binding, WT hCD27 = 100 (GM FITC)",R10A [48],113%
same,"binding, WT hCD27 = 100 (GM FITC)",V30A [49],102%
same,"binding, WT hCD27 = 100 (GM FITC)",F28A [50],60%
same,"binding, WT hCD27 = 100 (GM FITC)",K17A [59],32.4%
same,"binding, WT hCD27 = 100 (GM FITC)",D32A [60],43.7%
same,"binding, WT hCD27 = 100 (GM FITC)",Q15A [61],32%
same,"binding, WT hCD27 = 100 (GM FITC)",K17A [62],6.8%
same,"binding, WT hCD27 = 100 (GM FITC)",D32A [63],8.7%
same,"binding, WT hCD27 = 100 (GM FITC)",Q15A [64],7.6%

# From patent US20180086841A1
